Test results: patent US20210032299A1 (Eli Lilly, published 2021)
Starred links: 1 amine or outer side, 2 acyl side, 3 side chain; linkers in the order of their positions; H or OH if unused. Non-standard residues stand in square brackets, D forms with d. Groups on a side chain read outwards from the residue. No end group written: not given here. *: point of attachment. C20 diacid = O=C(O)CCCCCCCCCCCCCCCCCCC(=O)*; γGlu = O=C(O)[C@H](CCC(=O)[*:2])N[*:1]; αMeL = CC(C)C[C@](C)(N)C(=O)O; AEEA = NCCOCCOCC(=O)O; Aib = CC(C)(N)C(=O)O

T1: human glucose-dependent insulinotropic polypeptide (GIP) receptor (human, UniProt P48546 22-466)
T1 construct: whole, on cells; Assayed as crude membranes of stably transfected CHO cells; also called hGIPR; human GIP receptor
T1 sequence (looked up): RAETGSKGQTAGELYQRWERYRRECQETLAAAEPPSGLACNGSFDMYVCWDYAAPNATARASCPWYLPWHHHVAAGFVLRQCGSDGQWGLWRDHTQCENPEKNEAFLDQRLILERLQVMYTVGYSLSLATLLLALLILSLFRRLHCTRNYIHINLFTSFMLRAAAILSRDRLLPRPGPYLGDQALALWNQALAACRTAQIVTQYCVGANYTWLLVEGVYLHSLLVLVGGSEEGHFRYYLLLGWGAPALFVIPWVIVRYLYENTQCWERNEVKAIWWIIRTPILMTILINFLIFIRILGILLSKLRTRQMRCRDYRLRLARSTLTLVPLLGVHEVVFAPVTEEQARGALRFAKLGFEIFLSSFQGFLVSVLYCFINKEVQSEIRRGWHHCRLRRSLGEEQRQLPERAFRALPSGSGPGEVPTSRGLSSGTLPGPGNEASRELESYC


Assays:
human GLP-1 receptor = molecular target: T2, human GLP-1 receptor (human, UniProt P43220 24-463); assay: SPA, displacement of [125I]-GLP-1 from hGLP-1R membranes, 0.1% bacitracin
T2 construct: whole, on cells; Assayed as crude membranes of stably transfected HEK293 cells; also called hGLP1R; hGLP-1R
How it was run: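 Binding buffer: 25 mM HEPES pH 7.4, 2.5 mM CaCl₂, 1 mM MgCl₂, 0.1% bacitracin, 0.003% Tween-20, protease inhibitors without EDTA. Four-parameter nonlinear regression; Kᵢ given as geometric mean ± SEM, n = independent replicates run on different days.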

[1] = molecular target: T1, human glucose-dependent insulinotropic …; assay: SPA, displacement of [125I]-GIP from hGIPR membranes, 0.1% bacitracin
human glucagon receptor = molecular target: T3, human glucagon receptor (human, UniProt P47871 26-477); assay: SPA, displacement of [125I]-Gcg from hGcgR membranes, 0.1% bacitracin
T3 construct: whole, on cells; Assayed as crude membranes of stably transfected HEK293 cells; also called hGcgR; GcgR
How it was run: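 Binding buffer: 25 mM HEPES pH 7.4, 2.5 mM CaCl₂, 1 mM MgCl₂, 0.003% Tween-20, protease inhibitors without EDTA. Counted by scintillation after 12 h incubation/settling at room temperature. Four-parameter nonlinear fit; Kᵢ given as geometric mean ± SEM of independent replicates run on different days.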

T3 sequence (P47871 26-477): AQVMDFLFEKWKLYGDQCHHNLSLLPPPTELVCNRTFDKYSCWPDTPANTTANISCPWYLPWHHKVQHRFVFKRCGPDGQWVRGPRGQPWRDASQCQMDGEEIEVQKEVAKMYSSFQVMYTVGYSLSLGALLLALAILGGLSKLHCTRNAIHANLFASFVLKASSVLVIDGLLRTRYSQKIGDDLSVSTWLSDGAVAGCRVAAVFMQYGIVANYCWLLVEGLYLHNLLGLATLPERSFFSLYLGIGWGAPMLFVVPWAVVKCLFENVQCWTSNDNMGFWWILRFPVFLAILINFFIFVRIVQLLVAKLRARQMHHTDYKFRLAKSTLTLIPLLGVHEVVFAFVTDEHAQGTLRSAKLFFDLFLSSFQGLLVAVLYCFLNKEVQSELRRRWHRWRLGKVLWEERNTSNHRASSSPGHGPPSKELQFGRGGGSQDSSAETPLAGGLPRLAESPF

| Binder | Ki (human GLP-1 receptor) [nM] | Ki [1] [nM] | Ki (human glucagon receptor) [nM] |
| --- | --- | --- | --- |
| Y[Aib]EGTFISDYSI[αMeL]LDKK([AEEA-AEEA-γGlu-C20 diacid])HQ[Aib]DFVEYLLAGGPSSGAPPPS-NH2 (N-terminus assumed; SMILES CC[C@H](C)[C@H](NC(=O)[C@H](Cc1ccccc1)NC(=O)[C@@H](NC(=O)CNC(=O)[C@H](CCC(=O)O)NC(=O)C(C)(C)NC(=O)[C@@H](N)Cc1ccc(O)cc1)[C@@H](C)O)C(=O)N[C@@H](CO)C(=O)N[C@@H](CC(=O)O)C(=O)N[C@@H](Cc1ccc(O)cc1)C(=O)N[C@@H](CO)C(=O)N[C@H](C(=O)N[C@@](C)(CC(C)C)C(=O)N[C@@H](CC(C)C)C(=O)N[C@@H](CC(=O)O)C(=O)N[C@@H](CCCCN)C(=O)N[C@@H](CCCCNC(=O)COCCOCCNC(=O)COCCOCCNC(=O)CC[C@H](NC(=O)CCCCCCCCCCCCCCCCCCC(=O)O)C(=O)O)C(=O)N[C@@H](Cc1c[nH]cn1)C(=O)N[C@@H](CCC(N)=O)C(=O)NC(C)(C)C(=O)N[C@@H](CC(=O)O)C(=O)N[C@@H](Cc1ccccc1)C(=O)N[C@H](C(=O)N[C@@H](CCC(=O)O)C(=O)N[C@@H](Cc1ccc(O)cc1)C(=O)N[C@@H](CC(C)C)C(=O)N[C@@H](CC(C)C)C(=O)N[C@@H](C)C(=O)NCC(=O)NCC(=O)N1CCC[C@H]1C(=O)N[C@@H](CO)C(=O)N[C@@H](CO)C(=O)NCC(=O)N[C@@H](C)C(=O)N1CCC[C@H]1C(=O)N1CCC[C@H]1C(=O)N1CCC[C@H]1C(=O)N[C@@H](CO)C(N)=O)C(C)C)[C@@H](C)CC) [Example 53] | 62.9 | 0.0184 | 152 |
| Y[Aib]EGTFISDYSI[αMeL]LDKK([AEEA-AEEA-γGlu-C20 diacid])HQ[Aib]DFVEWLLAGGPSSGAPPPS-NH2 (N-terminus assumed; SMILES CC[C@H](C)[C@H](NC(=O)[C@H](Cc1ccccc1)NC(=O)[C@@H](NC(=O)CNC(=O)[C@H](CCC(=O)O)NC(=O)C(C)(C)NC(=O)[C@@H](N)Cc1ccc(O)cc1)[C@@H](C)O)C(=O)N[C@@H](CO)C(=O)N[C@@H](CC(=O)O)C(=O)N[C@@H](Cc1ccc(O)cc1)C(=O)N[C@@H](CO)C(=O)N[C@H](C(=O)N[C@@](C)(CC(C)C)C(=O)N[C@@H](CC(C)C)C(=O)N[C@@H](CC(=O)O)C(=O)N[C@@H](CCCCN)C(=O)N[C@@H](CCCCNC(=O)COCCOCCNC(=O)COCCOCCNC(=O)CC[C@H](NC(=O)CCCCCCCCCCCCCCCCCCC(=O)O)C(=O)O)C(=O)N[C@@H](Cc1c[nH]cn1)C(=O)N[C@@H](CCC(N)=O)C(=O)NC(C)(C)C(=O)N[C@@H](CC(=O)O)C(=O)N[C@@H](Cc1ccccc1)C(=O)N[C@H](C(=O)N[C@@H](CCC(=O)O)C(=O)N[C@@H](Cc1c[nH]c2ccccc12)C(=O)N[C@@H](CC(C)C)C(=O)N[C@@H](CC(C)C)C(=O)N[C@@H](C)C(=O)NCC(=O)NCC(=O)N1CCC[C@H]1C(=O)N[C@@H](CO)C(=O)N[C@@H](CO)C(=O)NCC(=O)N[C@@H](C)C(=O)N1CCC[C@H]1C(=O)N1CCC[C@H]1C(=O)N1CCC[C@H]1C(=O)N[C@@H](CO)C(N)=O)C(C)C)[C@@H](C)CC) [Example 54] | 49.9 | 0.0326 | 386 |
| Y[Aib]EGTFISDYSI[αMeL]LDKK([AEEA-AEEA-γGlu-C20 diacid])HQ[Aib]EFVEYLLEQGPSSGAPPPS-NH2 (N-terminus assumed; SMILES CC[C@H](C)[C@H](NC(=O)[C@H](Cc1ccccc1)NC(=O)[C@@H](NC(=O)CNC(=O)[C@H](CCC(=O)O)NC(=O)C(C)(C)NC(=O)[C@@H](N)Cc1ccc(O)cc1)[C@@H](C)O)C(=O)N[C@@H](CO)C(=O)N[C@@H](CC(=O)O)C(=O)N[C@@H](Cc1ccc(O)cc1)C(=O)N[C@@H](CO)C(=O)N[C@H](C(=O)N[C@@](C)(CC(C)C)C(=O)N[C@@H](CC(C)C)C(=O)N[C@@H](CC(=O)O)C(=O)N[C@@H](CCCCN)C(=O)N[C@@H](CCCCNC(=O)COCCOCCNC(=O)COCCOCCNC(=O)CC[C@H](NC(=O)CCCCCCCCCCCCCCCCCCC(=O)O)C(=O)O)C(=O)N[C@@H](Cc1c[nH]cn1)C(=O)N[C@@H](CCC(N)=O)C(=O)NC(C)(C)C(=O)N[C@@H](CCC(=O)O)C(=O)N[C@@H](Cc1ccccc1)C(=O)N[C@H](C(=O)N[C@@H](CCC(=O)O)C(=O)N[C@@H](Cc1ccc(O)cc1)C(=O)N[C@@H](CC(C)C)C(=O)N[C@@H](CC(C)C)C(=O)N[C@@H](CCC(=O)O)C(=O)N[C@@H](CCC(N)=O)C(=O)NCC(=O)N1CCC[C@H]1C(=O)N[C@@H](CO)C(=O)N[C@@H](CO)C(=O)NCC(=O)N[C@@H](C)C(=O)N1CCC[C@H]1C(=O)N1CCC[C@H]1C(=O)N1CCC[C@H]1C(=O)N[C@@H](CO)C(N)=O)C(C)C)[C@@H](C)CC) [Example 63] | 327 | 0.0248 | 185 |
| Y[Aib]EGTFISDYSI[αMeL]LDKK([AEEA-AEEA-γGlu-C20 diacid])HQ[Aib]EFVEYLLETGPSSGAPPPS-NH2 (N-terminus assumed; SMILES CC[C@H](C)[C@H](NC(=O)[C@H](Cc1ccccc1)NC(=O)[C@@H](NC(=O)CNC(=O)[C@H](CCC(=O)O)NC(=O)C(C)(C)NC(=O)[C@@H](N)Cc1ccc(O)cc1)[C@@H](C)O)C(=O)N[C@@H](CO)C(=O)N[C@@H](CC(=O)O)C(=O)N[C@@H](Cc1ccc(O)cc1)C(=O)N[C@@H](CO)C(=O)N[C@H](C(=O)N[C@@](C)(CC(C)C)C(=O)N[C@@H](CC(C)C)C(=O)N[C@@H](CC(=O)O)C(=O)N[C@@H](CCCCN)C(=O)N[C@@H](CCCCNC(=O)COCCOCCNC(=O)COCCOCCNC(=O)CC[C@H](NC(=O)CCCCCCCCCCCCCCCCCCC(=O)O)C(=O)O)C(=O)N[C@@H](Cc1c[nH]cn1)C(=O)N[C@@H](CCC(N)=O)C(=O)NC(C)(C)C(=O)N[C@@H](CCC(=O)O)C(=O)N[C@@H](Cc1ccccc1)C(=O)N[C@H](C(=O)N[C@@H](CCC(=O)O)C(=O)N[C@@H](Cc1ccc(O)cc1)C(=O)N[C@@H](CC(C)C)C(=O)N[C@@H](CC(C)C)C(=O)N[C@@H](CCC(=O)O)C(=O)N[C@H](C(=O)NCC(=O)N1CCC[C@H]1C(=O)N[C@@H](CO)C(=O)N[C@@H](CO)C(=O)NCC(=O)N[C@@H](C)C(=O)N1CCC[C@H]1C(=O)N1CCC[C@H]1C(=O)N1CCC[C@H]1C(=O)N[C@@H](CO)C(N)=O)[C@@H](C)O)C(C)C)[C@@H](C)CC) [Example 64] | 477 | 0.022 | 196 |
